Target: git1_human GIT1 (UniProt Q9Y2X7)
Sequence (Q9Y2X7 whole entry): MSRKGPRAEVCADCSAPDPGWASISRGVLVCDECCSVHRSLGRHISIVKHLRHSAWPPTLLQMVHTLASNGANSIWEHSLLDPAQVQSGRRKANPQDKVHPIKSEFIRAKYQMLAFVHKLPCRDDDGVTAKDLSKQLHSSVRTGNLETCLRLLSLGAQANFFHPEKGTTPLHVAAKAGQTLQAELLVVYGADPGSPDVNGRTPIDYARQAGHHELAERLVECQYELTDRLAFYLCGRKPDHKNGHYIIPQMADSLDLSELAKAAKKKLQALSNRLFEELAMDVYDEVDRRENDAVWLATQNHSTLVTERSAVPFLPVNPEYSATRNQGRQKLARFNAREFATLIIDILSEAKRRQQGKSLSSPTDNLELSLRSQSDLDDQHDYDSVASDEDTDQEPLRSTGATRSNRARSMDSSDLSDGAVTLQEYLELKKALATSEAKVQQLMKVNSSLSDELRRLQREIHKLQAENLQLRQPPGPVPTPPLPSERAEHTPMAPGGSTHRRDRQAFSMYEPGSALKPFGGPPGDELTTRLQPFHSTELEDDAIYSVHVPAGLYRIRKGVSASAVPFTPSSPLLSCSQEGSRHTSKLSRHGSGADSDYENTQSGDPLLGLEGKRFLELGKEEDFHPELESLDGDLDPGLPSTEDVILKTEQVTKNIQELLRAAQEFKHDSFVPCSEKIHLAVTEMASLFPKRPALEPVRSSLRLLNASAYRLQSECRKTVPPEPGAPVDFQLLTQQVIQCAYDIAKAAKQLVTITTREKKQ

Chain of Paxillin (Gallus gallus (Chicken)), P49024 S273A (P49024 whole entry S273A): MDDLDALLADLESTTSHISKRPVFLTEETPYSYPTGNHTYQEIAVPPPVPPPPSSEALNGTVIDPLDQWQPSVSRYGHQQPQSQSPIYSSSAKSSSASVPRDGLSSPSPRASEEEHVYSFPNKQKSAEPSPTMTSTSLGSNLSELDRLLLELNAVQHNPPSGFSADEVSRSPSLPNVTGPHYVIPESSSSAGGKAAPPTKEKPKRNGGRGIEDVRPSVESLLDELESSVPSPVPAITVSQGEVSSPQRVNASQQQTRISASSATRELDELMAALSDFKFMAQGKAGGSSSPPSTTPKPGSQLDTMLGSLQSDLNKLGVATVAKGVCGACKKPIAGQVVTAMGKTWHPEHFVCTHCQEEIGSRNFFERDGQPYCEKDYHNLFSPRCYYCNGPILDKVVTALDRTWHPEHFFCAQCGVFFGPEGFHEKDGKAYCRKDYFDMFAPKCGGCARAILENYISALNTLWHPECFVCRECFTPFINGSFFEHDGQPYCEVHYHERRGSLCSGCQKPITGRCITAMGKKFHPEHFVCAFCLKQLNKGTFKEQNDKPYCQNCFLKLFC
Chain of Paxillin (Gallus gallus (Chicken)), P49024 S273D (P49024 whole entry S273D): as the sequence (P49024 whole entry S273A) above, with A273D counted along it

| Substance | effect of a mutation on the interaction |
| --- | --- |
| Paxillin (Gallus gallus (Chicken)), P49024 S273A | decreasing interaction |
| Paxillin (Gallus gallus (Chicken)), P49024 S273D | increasing interaction |
